The source of these data is paper PMC6478609.

This experiment has as its target TRPM8FA with the Ala805→Gly mutation (TRPM8_(FA_AG)) (collared flycatcher Ficedula albicollis) (UniProt U3JD03). The experiment in a line: cryo-EM structure.

What is called stoichiometry N is the number of molecules, sites or subunits per partner or assembly. For the substance “TRPM8FA with the Ala805→Gly mutation (TRPM8_(FA_AG)) (from UniProt U3JD03 1-1115) (natural protein)”, the stoichiometry N turned out to be 4.
